Results published in article PMC12521494.
“And” between values parts separate entries of the source, which are not always exact repeats. Equal values may be shown once.

Molecular target: NbNRC2 (Nicotiana benthamiana)
Experiment: native gel or EMSA

stoichiometry N: 2 and 4
Substance: NbNRC2 (receptor)
